Assay results taken from US20150105327.

Assays:
[1] = test system: recombinant human histone H2A (wild type)
[2] = test system: tailless histone H2A (N- and C-terminal tails deleted)
[3] = test system: H2A with mutations of six other potential modification sites on the tail domains

recombinant His-VprBP wild type, sequence (chain, as listed by the source): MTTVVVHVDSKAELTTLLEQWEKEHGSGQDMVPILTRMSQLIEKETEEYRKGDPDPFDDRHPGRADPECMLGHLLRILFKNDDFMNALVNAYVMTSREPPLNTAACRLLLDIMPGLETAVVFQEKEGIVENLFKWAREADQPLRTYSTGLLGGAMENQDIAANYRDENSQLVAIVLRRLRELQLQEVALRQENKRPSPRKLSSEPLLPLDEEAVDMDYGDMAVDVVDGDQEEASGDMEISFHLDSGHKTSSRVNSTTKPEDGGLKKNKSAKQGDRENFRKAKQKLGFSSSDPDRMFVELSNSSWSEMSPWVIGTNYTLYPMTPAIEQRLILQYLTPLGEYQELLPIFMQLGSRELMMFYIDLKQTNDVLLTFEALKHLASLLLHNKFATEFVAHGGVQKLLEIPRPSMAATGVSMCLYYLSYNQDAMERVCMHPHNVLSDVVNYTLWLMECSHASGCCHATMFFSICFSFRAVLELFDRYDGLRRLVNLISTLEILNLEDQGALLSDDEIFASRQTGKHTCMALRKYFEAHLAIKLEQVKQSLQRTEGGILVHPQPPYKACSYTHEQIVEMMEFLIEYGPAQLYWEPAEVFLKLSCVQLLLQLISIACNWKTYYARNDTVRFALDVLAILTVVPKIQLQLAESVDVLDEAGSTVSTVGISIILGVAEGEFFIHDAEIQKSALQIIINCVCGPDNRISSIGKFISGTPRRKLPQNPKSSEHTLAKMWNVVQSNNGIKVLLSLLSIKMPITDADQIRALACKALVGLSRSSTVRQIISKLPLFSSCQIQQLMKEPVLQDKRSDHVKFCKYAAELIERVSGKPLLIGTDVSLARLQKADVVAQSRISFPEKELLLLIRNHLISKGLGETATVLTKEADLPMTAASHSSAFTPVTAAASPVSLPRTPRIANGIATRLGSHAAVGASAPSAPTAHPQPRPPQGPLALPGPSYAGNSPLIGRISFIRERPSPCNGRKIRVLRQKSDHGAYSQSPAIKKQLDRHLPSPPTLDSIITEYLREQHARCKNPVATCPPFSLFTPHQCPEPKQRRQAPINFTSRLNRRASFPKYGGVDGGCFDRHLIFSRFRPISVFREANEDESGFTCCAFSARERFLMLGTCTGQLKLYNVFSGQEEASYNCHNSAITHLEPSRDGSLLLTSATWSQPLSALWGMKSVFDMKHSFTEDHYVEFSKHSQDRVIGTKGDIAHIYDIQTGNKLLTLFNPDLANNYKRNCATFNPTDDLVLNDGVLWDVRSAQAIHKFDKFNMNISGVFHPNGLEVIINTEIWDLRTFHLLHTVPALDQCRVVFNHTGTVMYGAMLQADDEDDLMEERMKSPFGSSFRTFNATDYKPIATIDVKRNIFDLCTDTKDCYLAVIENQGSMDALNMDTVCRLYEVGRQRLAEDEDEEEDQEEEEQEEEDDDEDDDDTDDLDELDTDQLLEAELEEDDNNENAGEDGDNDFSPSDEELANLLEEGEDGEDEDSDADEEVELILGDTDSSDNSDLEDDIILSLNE
VprBP kinase-dead mutant K194R, sequence (chain, as listed by the source K194R): as the sequence (chain, as listed by the source) above, with K194R counted along it

Row | Substance | H2A phosphorylation in nucleosomes, in vitro kinase assay, autoradiography [1] | H2A phosphorylation in nucleosomes, in vitro kinase assay, autoradiography [2] | phosphorylation of free individual histones, in vitro kinase assay with [g-32P]-ATP, autoradiography (recombinant histone H2B) | phosphorylation of H2A in reconstituted nucleosomes, in vitro kinase assay, autoradiography [1] | phosphorylation of free individual histones, in vitro kinase assay with [g-32P]-ATP, autoradiography [1] | phosphorylation of free individual histones, in vitro kinase assay with [g-32P]-ATP, autoradiography (recombinant histone H3) | H2A phosphorylation in nucleosomes, in vitro kinase assay, autoradiography (histone H2A T120A mutant) | H2A phosphorylation in nucleosomes, in vitro kinase assay, autoradiography [3] | phosphorylation of free individual histones, in vitro kinase assay with [g-32P]-ATP, autoradiography (recombinant histone H4)
1 | VprBP kinase-dead mutant K194R | mutation of this lysine residue completely abrogated kinase activity |  |  |  |  |  |  |  | 
2 | recombinant His-VprBP wild type |  | simultaneous deletion of the N- and C-terminal tails of H2A blocks H2A phosphorylation by VprBP | a robust phosphorylation of H2A, but not other core histones | VprBP generated clear labeling of H2A in the nucleosome after autoradiography | Autoradiograph of the kinase reaction products showed a robust phosphorylation of H2A, but not other core histones | a robust phosphorylation of H2A, but not other core histones | VprBP-mediated phosphorylation is completely abolished by mutation of T120 | mutations of six other potential modification sites on the tail domains had little effect | a robust phosphorylation of H2A, but not other core histones
